Experimental data published in the RNAGym collection of RNA variant scans (doi:10.7554/elife.80360).

B1: Twister Ribozyme (parent)
chain: AACACUGCCAAUGCCGGUCCCAAGCCCGGAUAAAAGUGGAGGGGGCGG

Variants of: B1
Assay: self-cleavage, relative activity (ratio to wild type); higher = more cleavage; co-transcriptional

Variant	self-cleavage
C8G G13U	0.194
C8A C21U	0.107
C8U A10C	0.755
C8U A10U	0.582
C8U A10G	0.655
G7U A22U	0.0446
G7U A22G	0.0616
G7U A22C	0.11
C8G C19G	0.0626
C8G C19A	0.0465
C8A U18C	0.0479
C8G A32C	0.323
C8G A32G	0.275
C8G A32U	0.322
G7C G13C	0.0439
G7C G13A	0.0687
G7U G45A	0.0748
G7U G45U	0.087
G7A A11C	0.0895
G7C G38C	0.0787
G7C G38U	0.071
G7C G38A	0.0835
G7C A32C	0.0784
G7C A32G	0.105

Variant	self-cleavage
G7C G16C	0.13
C8A G13U	0.261
C8A G13A	0.359
G7U G41C	0.111
G7C U37C	0.0652
G7C A40C	0.0472
G7C A40U	0.0764
U6G G44U	0.242
C8G U37A	0.115
C8G U37G	0.108
C8G U37C	0.131
C8G G16U	0.108
U6G G41C	0.092
C8G C9U	0.0635
C8G C9G	0.107
G7C G39C	0.071
C8A G41A	0.175
G7U G39C	0.0429
G7U G39A	0.0425
G7A C26U	0.102
G7A C26G	0.0601
C8G A23U	0.103
C8G A23G	0.0516
G7A C19A	0.0667

Variant	self-cleavage
G7C G45U	0.0816
C8G G17U	0.0532
C8G G17A	0.0824
C8G G17C	0.07
G7A C20U	0.116
G7U G38C	0.0818
G7U G38U	0.103
C8A A22U	0.127
G7U C19U	0.0568
G7U C19G	0.0806
C8A A10C	0.594
C8A A10G	0.734
C8G G36C	0.119
U6G G45U	0.129
U6G G45C	0.104
C8G G38C	0.145
C8G G38U	0.158
G7A U12G	0.381
G7A U12C	0.455
C8G A22U	0.157
C8G A22G	0.0585
G7A U37A	0.144
G7A U37G	0.162
G7A U37C	0.111

Variant	self-cleavage
C8A C46A	0.167
C8A C46G	0.353
C8A G38U	0.169
G7C G36C	0.0549
C8A A34C	0.189
G7C C21U	0.0396
G7C C21G	0.0593
C8G G39C	0.135
C8G G39A	0.0973
G7A C25G	0.237
G7A C25A	0.0809
U6G G47U	0.151
G7U A11U	0.0842
G7U A11C	0.0886
C8G G28A	0.0928
C8G C46U	0.424
G7A G44U	0.422
G7A G44C	0.322
G7A G44A	0.619
C8G G41A	0.179
C8G G41C	0.122
C8G C21G	0.0605
G7C G47C	0.122
G7A A40U	0.127

Variant	self-cleavage
G7A A40C	0.132
C8G C14G	0.0524
C8G C14A	0.495
G7C A11U	0.0693
G7C A11C	0.0664
G7A A23C	0.0662
G7A A23U	0.12
G7A G17A	0.083
G7A G17U	0.103
G7U G17U	0.0401
G7U G43C	0.0634
G7U G43A	0.0755
C8A C19A	0.0947
C8A C19U	0.107
G7C G42C	0.0454
G7C G42A	0.062
G7A G28U	0.28
C8G G48C	0.272
C8G G48U	0.263
G7U U37A	0.0497
C8G C26U	0.0555
C8G C26A	0.0716
G7A C27A	0.112
C8G G29U	0.156

Variant	self-cleavage
C8G G29C	0.077
C8G G29A	0.3
C8A U12A	0.475
G7U C20A	0.0332
G7U G42U	0.0886
G7A A30G	0.405
G7A G42U	0.136
C8G C27G	0.0686
G7U A35C	0.0996
G7U A35U	0.109
G7U A35G	0.0839
C8A G44A	0.555
G7U C26A	0.0629
G7U C26G	0.0462
G7C C19G	0.0745
C8G A34C	0.121
C8G A34U	0.553
C8G A34G	0.276
C8A A35U	0.477
C8A A35G	0.226
C8A A35C	0.405
U6G G48C	0.358
U6G G48A	0.24
C8G G44C	0.177

Variant	self-cleavage
G7U G24C	0.0734
G7U G24U	0.0676
G7A G45U	0.177
G7C G17U	0.0545
G7C A30U	0.0697
G7C A30C	0.0728
G7U A23U	0.0674
G7C A35C	0.064
G7C A35U	0.0701
G7A G38A	0.0994
G7A G38C	0.348
C8A C20G	0.0882
C8A A33U	0.28
C8A A33G	0.228
C8G A33C	0.203
G7C G24A	0.0629
C8G U31C	0.497
C8G U31A	0.472
G7U A10C	0.117
G7C C14U	0.0373
G7C C15A	0.0454
G7C C15G	0.0181
G7A C9U	0.0809
